The test system of the series is Escherichia coli TOP10. Nature of the series: shrunken log2 fold change of peptide-encoding DNA abundance (4.5 h post-induction vs induction); higher = less antimicrobial activity (less host growth inhibition). As to conditions: time post-induction: 4.5 h; library: site-saturation at positions 5, 18, 19, 20.
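Further: peptides expressed intracellularly from a pBAD plasmid library in pooled LB shake-flask culture, induced with 0.3% L-arabinose, DNA abundance read by NGS, three biological replicates, DESeq2 with apeglm shrinkage.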

As to RRIRDRPPRLPRPRPRPGLNPRP, the “shrunken log2 fold change” value was 0.184. In the case of RRIRPRPPRLPRPRPRPGVRPRP it was 0.116; in that of RRIRGRPPRLPRPRPRPGEAPRP, 1.48; in that of RRIRNRPPRLPRPRPRPRLHPRP, 0.0921. For RRIRHRPPRLPRPRPRPIGGPRP the value was 0.111; for RRIRIRPPRLPRPRPRPRNCPRP, -0.271; for RRIRKRPPRLPRPRPRPVRYPRP, 0.152. For RRIRNRPPRLPRPRPRPNYIPRP the value was -0.318; for RRIRIRPPRLPRPRPRPDRQPRP, 0.0357; for RRIRTRPPRLPRPRPRPSPMPRP, -0.163. For RRIRARPPRLPRPRPRPGLCPRP, the “shrunken log2 fold change” value was 0.553. For RRIRHRPPRLPRPRPRPQYLPRP the value was 0.00943. With RRIRARPPRLPRPRPRPCWRPRP, the “shrunken log2 fold change” value was -0.0211.

RRIRARPPRLPRPRPRPTTDPRP: the “shrunken log2 fold change” value was found to be 0.745. With RRIRYRPPRLPRPRPRPTNDPRP, the “shrunken log2 fold change” value is -0.404. In the case of RRIRPRPPRLPRPRPRPAEFPRP it was -0.0142; in that of RRIRLRPPRLPRPRPRPVFQPRP, 0.042; in that of RRIRCRPPRLPRPRPRPKSYPRP, -0.443.

In the case of RRIRDRPPRLPRPRPRPSESPRP, the “shrunken log2 fold change” value was -0.000946. In the case of RRIRARPPRLPRPRPRPQNVPRP it was -0.035. On to RRIRYRPPRLPRPRPRPRLYPRP, for which the “shrunken log2 fold change” value was -0.247. On to RRIRRRPPRLPRPRPRPCCIPRP, for which the “shrunken log2 fold change” value is -0.179. In the case of RRIRWRPPRLPRPRPRPNMNPRP it was -0.345.

Turning to RRIRRRPPRLPRPRPRPSADPRP, the “shrunken log2 fold change” value stood at 0.247. For RRIRGRPPRLPRPRPRPNWGPRP the value was 0.44; for RRIRMRPPRLPRPRPRPWRWPRP, 0.205; for RRIRRRPPRLPRPRPRPFSDPRP, -0.311. For RRIRVRPPRLPRPRPRPHRAPRP the value was 0.101; for RRIRHRPPRLPRPRPRPWLHPRP, -0.00987. For the sequence RRIRPRPPRLPRPRPRPNWPPRP, the “shrunken log2 fold change” value came to 0.0357. For RRIRNRPPRLPRPRPRPSASPRP the value was -0.2; for RRIRLRPPRLPRPRPRPQISPRP, -0.272; for RRIRPRPPRLPRPRPRPDNTPRP, -0.373. In the case of RRIRNRPPRLPRPRPRPQWGPRP it was -0.0138.

RRIRSRPPRLPRPRPRPTRCPRP: the “shrunken log2 fold change” value was determined as 0.264. Consider RRIRIRPPRLPRPRPRPFPTPRP, for which the “shrunken log2 fold change” value worked out at 0.0232. In the case of RRIRRRPPRLPRPRPRPHCFPRP it was 0.118. In the case of RRIRSRPPRLPRPRPRPWVWPRP it was 0.39; in that of RRIRNRPPRLPRPRPRPPCDPRP, -0.0173. Regarding RRIRPRPPRLPRPRPRPMSRPRP, the “shrunken log2 fold change” value is -0.0311.

For the sequence RRIRVRPPRLPRPRPRPTVQPRP, the “shrunken log2 fold change” value was -0.0375. Turning to RRIRHRPPRLPRPRPRPQSAPRP, the “shrunken log2 fold change” value is -0.116. For RRIRDRPPRLPRPRPRPSWYPRP the value was 0.0397. Take RRIRFRPPRLPRPRPRPAILPRP: the “shrunken log2 fold change” value was 0.0816. For RRIRRRPPRLPRPRPRPENFPRP the value was -0.0287. Take RRIRGRPPRLPRPRPRPIQTPRP: the “shrunken log2 fold change” value turned out to be 0.0411. In the case of RRIRYRPPRLPRPRPRPVISPRP it was 0.0433; in that of RRIRERPPRLPRPRPRPKHLPRP, -0.202. As to RRIRCRPPRLPRPRPRPSEGPRP, the “shrunken log2 fold change” value worked out at 0.141. In the case of RRIRLRPPRLPRPRPRPHSCPRP it was -0.884.

The record behind these values is the supplement of paper PMC9112550, “Optimization of the antimicrobial peptide Bac7 by deep mutational scanning” (BMC Biology, 2022).
